Measurements published in a protein production outcome set (Wang et al. 2014).

Assay: label from the status in PepcDB records
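Note: failed if final PepcDB status was selected cloned or expressed and not failed if soluble or beyond.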

Row | Sequence | protein production
1 | MSNYTESLQYLDSYISARVPVIGMRTIEQQRALRLLREAATQPRRSSMPFWIYTRATGLRDLRTNAPVQDDRSLTGAMDFAAAQFTSRANATVVFVDPDDLGGDTPITRHIAELARLADSNMGSIVLITDTPIWSGLQRLGMSLHLDLPDADEMYGILSGFLGDHHGHIPIEWDEADGRRAAEFLLGVTEAECINLMATIAAKGSIQKADVLGLAQAKDRIFSDLTGLERVQLKEADYTVGGLSSLREWLQRKHWQLHEDLRDSALRPPRGVLLVGVPGCGKSLSAKAIAHEWQLPLYRLDMGAIHGKYLGESEGRFREALAMADRVAPCVLWIDEIEKGLAGRDDGSGVPQRIIGQFLFWLQESQSRAFVVATANDIRSLPPELLRKGRFDELFFVDLPDAQDRKEIIELYYQRYLQGEPDRDQVDQLVDLSEGFAGSDIESALHDVGLEARRIGGADGLKASFLRDTFANTVPMSRVNPEQIEEIRAWGRERALPAGRSTVSAAPGGAKPSRRIVFMDD | failed
2 | MSPASGSVISCAKVLDDYFYGSSNTVEALLLNSFETPALLFTTETSNLLTDIREDRSRHIEKISPYLLLTAGILSGFNPCLLAVMAFLASVNLTQKGRRKEMLKITLGFSTGIFTMHMLAGLSILGTVNFLPELRSYFSEIAVVMTALLGFWHIYDAYWLRKHAKTTFRTPQPLKDFMSRMDEKNLLLLSFLAGGMFSLVKAPCVGAVYLSLLSLLAMKTDIVRGIEYIWIFNLGLLLPVVLLGLLLAFGLSPKTVTEFRERKRVGIRLITGSILISLALMMQFRIL | failed
3 | MSPISEPSRLDPVRPGQLLMIDLPGPELDKDTAAYLREHGIGAVCLFGKNVESAEQLRRLCADLREVMGEHALIAIDHEGGAITRPEFWPFAPSAMSLGAADDQQLTEDVNAALARQLRSVGINWNFTPVLDINVNPANPVIGDRAYGSDAARVTRHGRAALAGHTREGVAPCAKHFPGHGDTHQDSHLALPRVSKSRAELDAGELAPFRALLPETPAIMTAHIVYDALDAEHPATLSPRILTGLLREEWGYDGVIVTDSMGMQAIDANYGRGEAAVRALRAGADLVMALGRREVQQATLAAVAEYVPENQAAVATKRERLRALARRFPAQADETLDPQADAALLADA | not failed
4 | MSPIVSVPDITAPVENVPAILPKVVPGELIVNKPTGGDSDELFQYLVDILASPVYDVAIESPLELAEKLSDRLGVNFYIKREDKQRVFSFKLRGAYNMMSNLSREELDKGVITASAGNHAQGVALAGQRLNCVAKIVMPTTTPQIKIDAVRALGGDVVLYGKTFDEAQTHALELSEKDGLKYIPPFDDPGVIKGQGTIGTEINRQLKDIHAVFIPVGGGGLIAGVATFFKQIAPNTKIIGVEPYGAASMTLSLHEGHRVKLSNVDTFADGVAVALVGEYTFAKCQELIDGMVLVANDGISAAIKDVYDEGRNILETSGAVAIAGAAAYCEFYKIKNENIVAIASGANMDFSKLHKVTELAGLGSGKEALLATFMVEQQGSFKTFVGLVGSLNFTELTYRFTSERKNALILYRVNVDKESDLEKMIEDMKSSNMTTLNLSHNELVVDHLKHLVGGSANISDEIFGEFIVPEKAETLKTFLDAFSPRNITLCRYRNQGDINASLLMGFQVPQAEMDEFKNQADKLGYPYELDNYNEAFNLVVSE | not failed
5 | MSPLASRALSFLGALSLLTFAATPVLAESTPTAAPPQFAVESPKAASSLLLSVAHAGKRLVAVGDRGHILLSDDDGKTWTQAKVPTRQLLTSVFFVNERKGWAVGHDAQILVSDDAGSTWARQFEDLGREAPLLDIWFADEQHGLAVGAYGALLETRDGGQHWEDVSERLDNEDQFHLNAIAAVKDNGLLVVGEAGSLFRSKDWGATWEKLEGPYEGSLFGAIGTADAGGVLVYGLRGHLFRSADFGDSWEEIPLKAASGDLEFGLSDGALLADGRIVVVGHGGSVLESTDGGRSFSVFNRPDRLSLAGVSATGDGHLILVGQGGVHLAAANGAALEQQQLEHHHHHH | failed
6 | MSPLHRFSRTEILIGPEKLQRLRESTVAIFGLGGVGSFAAEALCRAGVGRLVLVDFDDICLTNVNRQLHAMDGTVGKAKVQVMAERLRLINPDADIVPHKDFYEAGNSDFLLSGGYNYVVDAIDHITSKLHLIRSCRERELRIISSMGAANKLDPTKIRVADISKTSVCGLARVVRKQLRRQGIKSGVTVVYSTEEPREQAIADAGCRSNCICPNKEEQRFSCEHRRNILGSISFIPSIFGLTMAGVVVNDLAKD | failed
7 | MSPMTIPSEMKALLLVGDGYTKTPSGSALEAMEPYLEQGRIAVPAPGPSQVLIKVNLASINPSDVAFIKGQYGQPRVKGRPAGFEGVGTIVAGGDEPYAKSLVGKRVAFATGLSNWGSWAEYAVAEAAACIPLLDTVRDEDGAAMIVNPLTAIAMFDIVKQEGEKAFVMTAGASQLCKLIIGLAKEEGFRPIVTVRRDEQIALLKDIGAAHVLNEKAPDFEATLREVMKAEQPRIFLDAVTGPLASAIFNAMPKRARWIIYGRLDPDATVIREPGQLIFQHKHIEGFWLSEWMRQFKERRGPAILEAQKRFSDGRWSTDVTAVVPLAEAIAWVPAELTKPNGKVFIRP | not failed
8 | MSPNLFIHPRQMPQILLALLGKNLVEIARQFFSARDSNPFFTPAGLTRIARLGRSAVLIGKSKPVPAGKRPTGSKPVHSLPPDRVDPENHARLEVAETDRFPLVKESAPPASFFVEQSPSPAFGEEGNGACKGSGIGGRCVLCVGGRAVLYPEYRRVVEASGGKLVIYRNLPQEPGHHLPVLLDQADMVVCPLDCVNHTAFFTVKRYCRRSGKPCVLLDRSNLSTFCKGIATLAGLYTSPAPARSDQSKRRCPASPEEGQFKDYLEHHHHHH | failed
9 | MSPRRSAAEAQATRGRILGRAAEIASEEGLDGITIGRLAEELEMSKSGVHKHFGTKETLQISTLDKAFVDFWHRVVEPALAEPPGLRRLRAVCANSVGYLEEPLLPGGCLLTAALSEYDGRPGRVRDAVAEVWSRWREQLRADLTAAVDKGELPAGFDVEQALFEIVAAGLALNAAMQLQHDRTAADRARRAIERALAQS | not failed
10 | MSPTHKPMPEPTEVFTLPRWKITRWLTDTDRDVPTDIKRALIGSLFGTLSIFVGGVVNTLLVAALIAWHIQRPAFFAWFGLECLICIARISILVSARRRARAARSTHTDLHLALSLAWAFSVGLGTYLSITSGNWLAAALACLSSAAMIGGICFRNFGAPRMSGLMILLALGPCCLGAIVAREPLFLLTLIQLPVYVASMTSASFRMHAMLVATMQSERENAHRARHDSMTGLLNRGSLLAEIRATMECNAISPLRSALLYLDLDGFKRINDVHGHGCGDELLQQVADRMRATVPEGTHVSRIGGDEFVILLNLHESDDVQVLAQRLLRDIAVPYLLANGETVAIGVSIGITHISPNGQSADAVLNVADRALYVAKARGKGCFHFSEAVQAL | failed
11 | MSPTLSILIPVYKRDCRRLLEELYKQAEELSVGYEIILGDDCSGEPYTSQYIAYEQEGLCRLVSAEENMGAGRLRNRLAEEAQGEQLLILDSDTLPASPDFIERYLRHASGTTVVCGGFVYPPKSTNPLRQRYGAEVESRSAEERARKPHSGFISMAFMIPRKQMLATGFPPNMGMGYEDILFGERLRQAGIPILHIDNPVEHYHCDTAEGFLATTRSYLDNLYCHREELAELVSLLRAYNLLKRLHLMRMVAALWPLIRSSLEKQLTGAKPSLLLFSLYKLLYVASLSLVCAEKS | failed
12 | MSQAFPGPHGAPATGHVPVLRLGEVLLVTLQGDLHDSTAQQLQEDLAETIVRSGATGVVIDVSGVEIVDSFLGRILAEIAGQTGLLAARTVLVGMRPAVAITLVELGLTLPGVHTALSTEVAMELLRQQAPSSRFGGLRQESQ | not failed
13 | MSQDNYFSRMLRGEAPVPAVAGTLGGVIRAVDLEAGSLESDYVATDAFLNPVGQVQGGMLGAMLDDVTAMLVTATLEDGASCSTLNLNLSFLRPAQAGLLRGRARLERRGRNVCNVVGELSQDGKLVATATATCMVARRA | not failed
14 | MSQEAFENKLYANLEAVIDPELGVDIVNLGLVYDVTADENNNAVITMTMTSIGCPMAGQIVSDVKKVLSTNVPEVNEIEVNVVWNPPWSKERMSRMAKIALGIRD | not failed
15 | MSQFWYSEETASRLAEELLQQAGEHGRIACLSAPSVYQKLKQLESVRSDGVSAVLLEFDRRFAAYGDEFVFYDYNNPLCLPEDLLPQSFDIVIADPPYLSEECLSKVTLTVKHLTKGKILLCTGAIMEEHAGKLLDLKMCSFLPRHNHNLANEFRCYVNYESRLLS | failed
16 | MSQIEAVFFDCDGTLVDSEVICSRAYVTMFRQFDITLELTEVFRRFKGVKLYEIIDTISKEHGVALAKAELEPVYRAEVARLFDTELEAIAGANTLLESIKTPMCVVSNGPVSKMQHSLGKLGMLHHFPDLLFSGYDIQRWKPDPALMLHAANAMKVNVEKCILVDDSSAGAQSGIAAGMEVFYFCADPHNKPIDHPNVTTFTDLAQLPGLWKAR | failed
17 | MSQLEIRDLWASIDGETILKGVNLVVPKGEVHALMGPNGAGKSTLGKILAGDPEYTVERGEILLDGENILELSPDERARKGLFLAFQYPVEVPGVTIANFLRLALQAKLGREVGVAEFWTKVKKALELLDWDESYLSRYLNEGFSGGEKKRNEILQLLVLEPTYAVLDETDSGLDIDALKVVARGVNAMRGPNFGALVITHYQRILNYIQPDKVHVMMDGRVVATGGPELALELEAKGYEWLKEKVKEGA | not failed
18 | MSQLLKLKSQYDDECTVTRHYEGKGRNAGRLGAVGCKNRHGEFRIGSGFKDKDRDNPPKIGTLITYRYRGFTRKGTPKFATFVRVRTLEHHHHHH | failed
19 | MSQLNSVWVFSDNPERYAELFGGAQQWGQQVYAIVQNTEQAQAVMPYGPKCIYVLEQNDALQRTENYAESIAALLKDKHPAMLLLAATKRGKALAARLSVQLNAALVNDATAVDIVDGHICAEHRMYGGLAFAQEKINSPLAIITLAPGVQEPCTRDISHQCPTETVPYVAPRHEILCRERRAKAASSVDLSKAKRVVGVGRGLAAQDDLKMVHELAAVLNAEVGCSRPIAEGENWMERERYIGVSGVLLKSDLYLTLGISGQIQHMVGGNGAKVIVAINKDKNAPIFNYADYGLVGDIYKVVPALISQLNR | failed
20 | MSQPPLLSGPGGRLLGAALLIGLLAGCGSVSTGNAGSGTVGTSTTSRADVMTFQPSSLPVSYVGETYNVQVGVTGGVGPYGYRLTAGTLPPGLKFAGGALSGTPTKAGSYSFAIQATDANLSTRVQEYTMNVDALPPLALKPTLPPGEIRGETRIPVTIQAPRAVRAARLSWDLGKDVQVTRVQPADAGSVVFWQQRGSVLTVDLGFRTVPRPDARIALITVKPAKAVTLKADALGYEARDGSGKMLVDKKRPGSEPVKPAEQPGDPKVDPKAADQKATDQKATDPKTVDPKTVTPADTVEGGPLPSPALPTPSLPPTLPPVTTPPANTPPVPTPTPPANQPAPAPAPQPAPAPQPTPPSGTGGALEHHHHHH | not failed
